The text below walks through data of paper PMC8368996, “Interactions between AMOT PPxY motifs and NEDD4L WW domains function in HIV-1 release” (The Journal of Biological Chemistry, 2021).

For orientation: Kd means the equilibrium constant for the complex coming apart.

Experiment [1] concerns the target AMOT PPxY3 (Homo sapiens) (UniProt Q4VCS5). As to conditions: cited from earlier work.
Experiment [2] concerns the target AMOT PPxY1 A112K mutant peptide (UniProt Q4VCS5). Briefly: fluorescence polarisation; 1 nM Oregon Green-labelled PPxY peptide, 2-fold dilutions of WW domain; 20 mM Tris pH 7.5, 150 mM NaCl, 0.5 mM TCEP; 26 °C (legend: 25 °C).
The target of experiment [3] is AMOT PPxY1 peptide (residues 100-114), Oregon Green 488-labelled (UniProt Q4VCS5). Described as above.
Experiment [4] deals with AMOT PPxY2 P239L mutant peptide (UniProt Q4VCS5). The description is as above.
Experiment [5] addresses AMOT PPxY1 E104K/E105K mutant peptide (UniProt Q4VCS5). The experiment is described as above.
The target in experiment [6] is AMOT PPxY1 peptide (residues 100-114), Oregon Green 488-labelled (UniProt Q4VCS5). Described as above. This is another data set of the same source.
Another experiment addresses AMOT(1-300)-ALEXA488 (UniProt Q4VCS5). Briefly: fluorescence polarisation. A general note: Fluorescence polarisation rises when a labelled molecule tumbles more slowly, as on binding a larger partner.

Read-outs that look alike come from different tables or passages of the source.

Sequence of AMOT(1-300)-ALEXA488 (Q4VCS5 1-300): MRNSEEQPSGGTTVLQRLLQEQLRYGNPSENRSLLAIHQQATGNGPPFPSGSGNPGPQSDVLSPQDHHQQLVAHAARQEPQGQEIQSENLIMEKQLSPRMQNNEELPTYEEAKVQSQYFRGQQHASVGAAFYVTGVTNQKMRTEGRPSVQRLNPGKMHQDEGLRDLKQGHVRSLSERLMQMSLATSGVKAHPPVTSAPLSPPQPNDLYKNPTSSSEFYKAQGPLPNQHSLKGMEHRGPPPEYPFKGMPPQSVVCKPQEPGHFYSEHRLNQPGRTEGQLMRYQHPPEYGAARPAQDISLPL
Sequence of KIBRA WW1-WW2 (Q8IX03 6-86): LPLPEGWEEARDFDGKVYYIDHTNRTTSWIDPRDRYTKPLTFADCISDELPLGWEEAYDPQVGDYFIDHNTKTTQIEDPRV

Consider KIBRA WW1-WW2 (from UniProt Q8IX03), for which the Kd in experiment [1] is 0.096 µM.
In the case of NEDD4L WW3 domain (domain or fragment), the Kd is 40 µM in experiment [2], 4.5 µM in experiment [3], 31 µM in experiment [5] and 4.8 µM in experiment [6]. Also, in experiment [4], the fold reduction of binding against wt PPxY2 stood at 2.8 fold.
On to “full-length recombinant NEDD4L (isoform 2) (enzyme)”, for which the dissociation constant (Kd) with AMOT(1-300)-ALEXA488 is 2.7 µM.
